Results reported in article PMC7542363.

Experiment: overnight CpaA digestion, SDS-PAGE
Conditions: glycan changed form; control: untreated fetuin

B1: fetuin (alpha-2-HS-glycoprotein): asialofetuin (protein)
parent chain: MKSFVLLFCLAQLWGCHSIPLDPVAGYKEPACDDPDTEQAALAAVDYINKHLPRGYKHTLNQIDSVKVWPRRPTGEVYDIEIDTLETTCHVLDPTPLANCSVRQQTQHAVEGDCDIHVLKQDGQFSVLFTKCDSSPDSAEDVRKLCPDCPLLAPLNDSRVVHAVEVALATFNAESNGSYLQLVEISRAQFVPLPVSVSVEFAVAATDCIAKEVVDPTKCNLLAEKQYGFCKGSVIQKALGGEDVRVTCTLFQTQPVIPQPQPDGAEAEAPSAVPDAAGPTPSAAGPPVASVVVGPSVVAVPLPLHRAHYDLRHTFSGVASVESSSGEAFHVGKTPIVGQPSIPGGPVRLCPGRIRYFKI
With B1 the “other: proteolytic processing” value was “no change”.
